Source: patent publication US20250122242A1 (WISCONSIN ALUMNI RESEARCH FOUNDATION, published 2025)

T1: hIAPP-T7n (human islet amyloid polypeptide fused through a GGSGG linker to the N-terminal half of split T7 … (human))
T1 chain: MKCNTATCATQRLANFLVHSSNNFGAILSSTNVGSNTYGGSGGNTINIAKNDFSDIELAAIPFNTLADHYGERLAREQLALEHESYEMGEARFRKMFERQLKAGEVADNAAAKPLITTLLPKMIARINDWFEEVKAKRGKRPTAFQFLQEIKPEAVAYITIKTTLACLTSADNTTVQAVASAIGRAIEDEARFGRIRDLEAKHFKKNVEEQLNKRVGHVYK


Legend:
[1] = target: T1, hIAPP-T7n (human islet amyloid …); test: cell-based or functional assay
[2] = target: Aβ42-T7n (amyloid-β42 fused through a GGSGG linker to the N-terminal half of split T7 RNA polymerase); test: cell-based or functional assay

Binder | propagation of clonal SP on hIAPP against Aβ42 selection cells [1] [fold] | further results
cyclo(CRCVFSG) (not fully specified; printed as cyclo-CRCVFSG; cysteine pairing not given here) [cyclo-CRCVFSG (SEQ ID NO:69) encoded on selection phage as SICLOPPS precursor] | ~10 | 
cyclo(CKVWQLL) (not fully specified; printed as cyclo-CKVWQLL) [cyclo-CKVWQLL (SEQ ID NO:30) encoded on parent selection phage as SICLOPPS precursor] |  | fold phage propagation on E. coli encoding the Aβ42-T7n selection, against SP carrying scrambled control cyclo-CVQWLKL [2]: ~500 fold
cyclo(CDLGVFR) (not fully specified; printed as cyclo-CDLGVFR) [cyclo-CDLGVFR (SEQ ID NO:68) encoded on selection phage as SICLOPPS precursor] | ~1000 | 
cyclo(CKVWQLL) (not fully specified; printed as cyclo-CKVWQLL) |  | fold phage propagation on E. coli encoding the Aβ42-T7n selection, against scrambled control [2]: ~300 fold
